Data published in publication doi:10.1101/2025.01.05.631353 (bioRxiv, 2025).
Square brackets hold non-standard residues; d marks the D form. Ends that are not written are not given here. pT = C[C@@H](OP(=O)(O)O)[C@H](N)C(=O)O; pS = N[C@@H](COP(=O)(O)O)C(=O)O

How the values were obtained:
β-arrestin2 R166A = β-arrestin2 R166A (UniProt P29067 1-410, R166A); assay: ITC
β-arrestin2 R394A = β-arrestin2 R394A (UniProt P29067 1-410, R394A); assay: ITC
Sequence of β-arrestin2 R394A (P29067 whole entry R394A): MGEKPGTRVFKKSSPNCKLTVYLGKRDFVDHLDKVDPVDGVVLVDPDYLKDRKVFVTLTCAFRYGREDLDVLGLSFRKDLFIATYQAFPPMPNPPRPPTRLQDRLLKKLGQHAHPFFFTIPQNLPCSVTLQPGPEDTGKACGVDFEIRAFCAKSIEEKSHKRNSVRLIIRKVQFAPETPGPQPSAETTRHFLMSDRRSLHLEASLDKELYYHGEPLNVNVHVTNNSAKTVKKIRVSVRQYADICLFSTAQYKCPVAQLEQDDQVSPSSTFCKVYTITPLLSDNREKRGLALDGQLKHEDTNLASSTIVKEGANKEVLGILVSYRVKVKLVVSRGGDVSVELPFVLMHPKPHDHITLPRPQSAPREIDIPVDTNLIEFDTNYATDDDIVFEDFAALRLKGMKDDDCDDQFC

Sequence of β-arrestin2 R166A (P29067 whole entry R166A): as the sequence (P29067 whole entry R394A) above, with R166A, A394R counted along it

ASRV[pS]E[pT]EY[pS]ALEQ [C7pp2, phosphopeptide derived from the carboxyl terminus of CXCR7 (residues 346-359)] gave a Kd (β-arrestin2 R166A) of 16.4 µM and a Kd (β-arrestin2 R394A) of 1.1 µM.
